Measurements as given in US20210179698A1 (AstraZeneca / MedImmune, published 2021).

What was measured:
rat α-syn = rat α-syn (rat, UniProt P37377 1-140); test: direct binding HTRF assay
[1] = target: disease relevant pathological forms of human α-syn in Parkinson's disease brain tissue (human, UniProt P37840 1-140); test: immunohistochemistry of Parkinson's disease brain tissue
1-60 = target: T1, 1-60 (human, UniProt P37840); test: ELISA on coated α-syn truncates, anti-human IgG-HRP detection
T1 construct: residues 1-60, N-terminal region only; coated on ELISA wells; also called α-syn truncate 1-60; aa1-60
Procedure: (§1) Briefly, one microgram per milliliter of each truncate was coated to a microtitre well overnight at 4° C. […] Following 1 h incubation and washing the bound antibody was detected by addition of an anti-human IgG conjugated to either HRP or Eu³⁺. Subsequent to incubation and washing, the appropriate detection substrate was added (TMB or DELFIA Enhancer solution respectively) and the plate read on a microtitre plate reader.

1-95 = target: T2, 1-95 (human, UniProt P37840); test: as above
T2 construct: residues 1-95, N-terminal and NAC regions; coated on ELISA wells; also called α-syn truncate 1-95; aa1-95
Procedure: as §1

NCAP = target: T3, NCAP (human, UniProt P37840-2); test: as above
T3 construct: alternatively spliced form missing amino acids 103-129; coated on ELISA wells; also called alternatively spliced form of α-syn missing amino acids 103-129
Procedure: as §1

[2] = target: native, endogenously expressed intracellular human α-syn in SH-SY5Y neuroblastoma cells (human, UniProt P37840 1-140); test: flow cytometry on fixed, permeabilised SH-SY5Y cells, anti-human IgG-FITC
Procedure: After extensive washes, bound antibody was detected by incubation with an anti-human or anti-mouse IgG-FITC secondary antibody. Following further washes the cells were analyzed with a FACS Canto II apparatus (Becton Dickinson, Franklin Lakes, N.J.) and data analysis was performed using FlowJo Software (Tree Star, Ashland, Oreg.).

61-140 = target: T4, 61-140 (human, UniProt P37840); test: ELISA on coated α-syn truncates (1 µg/ml coat, 1 µg/ml antibody), anti-human IgG-HRP detection
T4 construct: residues 61-140, NAC plus C-terminal region; coated on ELISA wells; also called α-syn truncate 61-140; aa61-140
Procedure: as §1

96-140 = target: T5, 96-140 (human, UniProt P37840); test: as above
T5 construct: residues 96-140, C-terminal region only; coated on ELISA wells; also called α-syn truncate 96-140; C-terminal region only
Procedure: as §1

ΔNAC = target: T6, ΔNAC (human, UniProt P37840); test: as above
T6 construct: NAC region deleted; coated on ELISA wells; also called ANAC; α-syn with NAC region deleted
Procedure: as §1

[3] = target: human alpha-synuclein (recombinant) (human, UniProt P37840 1-140); test: as above
Procedure: as §1

[4] = target: T7, human beta-synuclein (recombinant) (human, UniProt Q16143 1-134); test: HTRF epitope competition: unlabelled synuclein titrated against biotinylated human α-syn for binding to aslo0543
T7 construct: also called β-syn; β-synuclein
Procedure: (§2) IC₅₀ values were determined by curve fitting the data to a four parameter logistic equation using PRISM 6® software (Graphpad). […] For the negative control, the antibody test sample was replaced with an isotype control antibody or buffer only.

[5] = target: T8, human gamma-synuclein (recombinant) (human, UniProt O76070 1-127); test: as above
T8 construct: also called γ-syn; γ-synuclein
Procedure: as §2

aggregated human α-syn = aggregated human α-syn (human, UniProt P37840 1-140); test: DELFIA pair-wise capture ELISA: mouse IgG1 version of the antibody as capture, human IgG1 TM version of the same antibody as detection, anti-human IgG-Eu
Procedure: Subsequent to incubation and washing, the appropriate detection substrate was added (TMB or DELFIA Enhancer solution respectively) and the plate read on a microtitre plate reader.

[6] = target: T7, human beta-synuclein (recombinant); test: HTRF epitope competition: unlabelled synuclein titrated against biotinylated human α-syn for binding to aslo0452 ngl-3
Procedure: as §2

[7] = target: T8, human gamma-synuclein (recombinant); test: as above
Procedure: as §2

Row | binding result (rat α-syn) | binding result [1] | binding result [2] | binding result (61-140) | binding result (96-140) | binding result (ΔNAC) | binding result [3] | binding result [4] | binding result [5] | binding result (aggregated human α-syn) | binding result [6] | binding result [7] | Binder | binding result (1-60) | binding result (1-95) | binding result (NCAP)
1 | binds | binds | binds | binds | binds | binds | binds | no binding | no binding | binds | – | – | aslo0543 (antibody, human IgG1, lambda, V domains shown, also called aslo0543 IgG) VH: not shown VL: QAVLTQPASLSASPGASASLTCTLRSSGDFSRYRIYWYQQKPGSPPQYLLRYKSDADKHQGSGVPSRFSGSKDASANAGILLISGLQSEDEADYYCMVWSSGAWYFGGGTKLTVLG | no binding (tested: 1 µg/ml (single concentration)) | no binding (tested: 1 µg/ml (single concentration)) | no binding (tested: 1 µg/ml (single concentration))
2 | – | – | – | – | binds | binds | – | – | – | – | no binding | no binding | aslo0452 ngl-3 (antibody, human IgG1, lambda, V domains shown, also called aslo0452 ngl-3 IgG; aslo0452-ngl3-hIgG1TM) VH: EVQLLESGGGLVQPGGSLRLSCAASGFTFSSYAMSWVRQAPGKGLEWVSSISHLGGSTYYADSVKGRFTISRDNSKNTLYLQMNSLRAEDTAVYYCAGGANHGKYYYGMDKWGQGTTVTVSS VL: QAVLTQPASLSASPGASASLTCTLRSGAPLPKYRIYWYQQKPGSPPQYLLRYKSDADKHQGSGVPSRFSGSKDASANAGILLISGLQSEDEADYYCMVWDHGVWYFGGGTKLTVLG | no binding (tested: 1 µg/ml (single concentration)) | – | –
